Data: article doi:10.1101/2023.09.11.557288, “An explainable language model for antibody specificity prediction using curated influenza hemagglutinin antibodies” (bioRxiv, 2023)

What was measured:
[1] = biological target: T1, mini-HA #4900 (Influenza A virus H1N1, designed stem …, stabilised); test: BLI; His-tagged antigen at 0.5 uM loaded on anti-Penta-HIS (HIS1K) biosensors, Fab in solution; room temperature; 1x PBS pH 7.4, 0.01% BSA, 0.002% Tween 20; 1:1 binding model; settings: both partners purified
T1 construct: also called H1 stem-based construct; HA stem-based construct without the HA head domain; not shown: 6xHis, C-terminal, kept

[2] = biological target: T2, H1N1 A/Solomon Islands/3/2006 (SI06) HA (Influenza A virus, A/Solomon …, UniProt A7Y8I1); test: as above; settings: both partners purified
T2 construct: also called HA from H1N1 A/Solomon Island/3/2006

B1: 310–18A5 Fab (Fab, V domains shown)
VH: QVQLMQSGTEVKKPGSSVRVSCKASGSTFNSDAISWVRQAPGQGLEWMGGILGMFRTVNYAQRFQGRVTITADELMSTAYMELSGLRFEDTAVYYCARGDGYKPNFLRYWGQGTLITVSS
VL: TLSLSPGERATLSCRASQSVSSTSLAWYQQKFGQAPRLLIYGASNRATGIPDRFSGSGSGTDFTLTISRLEPEDFAVYYCQQYGNSLTFGGGTKVEIK
Kd [1]: 1 nM | Kd [2]: 0.2 nM
